The series deals with the molecule itself. Description: SEC. Background: SEC sorts molecules by how far they enter the pores of the column.

B1: DGCR8 NC1 (amino acid residues 276-751 of human DGCR8), Fe(III) heme-bound dimer (domain or fragment, UniProt Q8WYQ5 276-751, looked up)
chain: DGETSVQPMMTKIKTVLKSRGRPPTEPLPDGWIMTFHNSGVPVYLHRESRVVTWSRPYFLGTGSIRKHDPPLSSIPCLHYKKMKDNEEREQSSDLTPSGDVSPVKPLSRSAELEFPLDEPDSMGADPGPPDEKDPLGAEAAPGALGQVKAKVEVCKDESVDLEEFRSYLEKRFDFEQVTVKKFRTWAERRQFNREMKRKQAESERPILPANQKLITLSVQDAPTKKEFVINPNGKSEVCILHEYMQRVLKVRPVYNFFECENPSEPFGASVTIDGVTYGSGTASSKKLAKNKAARATLEILIPDFVKQTSEEKPKDSEELEYFNHISIEDSRVYELTSKAGLLSPYQILHECLKRNHGMGDTSIKFEVVPGKNQKSEYVMACGKHTVRGWCKNKRVGKQLASQKILQLLHPHVKNWGSLLRMYGRESSKMVKQETSDKSVIELQQYAKKNKPNLHILSKLQEEMKRLAEEREETRK
Take B1: the binding result was “binds”.

These data come from PMC4788497 (Methods in molecular biology (Clifton, N.J.), 2014).
